T1: SN-F (Sendai virus, UniProt P04855)
T1 sequence (P04855 117-565 limits assumed): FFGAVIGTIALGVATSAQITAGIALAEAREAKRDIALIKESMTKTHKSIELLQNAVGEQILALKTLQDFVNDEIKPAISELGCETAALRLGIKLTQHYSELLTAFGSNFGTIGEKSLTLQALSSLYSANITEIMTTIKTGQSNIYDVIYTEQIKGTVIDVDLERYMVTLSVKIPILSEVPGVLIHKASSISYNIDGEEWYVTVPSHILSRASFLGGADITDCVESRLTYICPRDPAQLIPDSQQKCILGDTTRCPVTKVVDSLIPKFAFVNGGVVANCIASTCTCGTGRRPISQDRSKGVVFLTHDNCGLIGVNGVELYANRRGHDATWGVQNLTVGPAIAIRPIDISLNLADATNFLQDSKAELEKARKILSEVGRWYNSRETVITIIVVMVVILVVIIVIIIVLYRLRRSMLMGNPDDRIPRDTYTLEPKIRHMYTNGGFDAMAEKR
T1 sequence (P04855 26-116 partner limits assumed): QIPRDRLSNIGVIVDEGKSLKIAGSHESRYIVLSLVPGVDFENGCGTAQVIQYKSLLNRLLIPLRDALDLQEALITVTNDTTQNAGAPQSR

T2: SN-F, fusion glycoprotein of Sendai virus (Sendai virus (SN), UniProt P04855)
T2 sequence: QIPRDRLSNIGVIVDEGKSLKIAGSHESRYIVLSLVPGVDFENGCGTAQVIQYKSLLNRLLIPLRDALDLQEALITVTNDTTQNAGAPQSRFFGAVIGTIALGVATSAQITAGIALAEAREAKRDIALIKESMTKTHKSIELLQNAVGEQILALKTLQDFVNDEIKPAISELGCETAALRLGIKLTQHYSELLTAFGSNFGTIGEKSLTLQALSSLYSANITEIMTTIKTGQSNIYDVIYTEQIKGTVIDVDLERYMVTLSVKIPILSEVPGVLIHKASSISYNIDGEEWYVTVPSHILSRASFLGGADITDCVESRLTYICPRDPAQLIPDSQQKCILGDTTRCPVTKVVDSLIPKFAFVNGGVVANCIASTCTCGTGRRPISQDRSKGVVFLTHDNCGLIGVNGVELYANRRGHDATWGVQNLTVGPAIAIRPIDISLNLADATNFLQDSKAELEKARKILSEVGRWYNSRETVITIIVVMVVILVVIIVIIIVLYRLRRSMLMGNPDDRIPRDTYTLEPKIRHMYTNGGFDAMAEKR


Legend:
[1] = system: PI3 virus; assay type: cell-based, human parainfluenza type 3 virus
[2] = target: PI3F + PI3HN (Human parainfluenza 3 virus, UniProt P06828)
[3] = system: HeLa-T4 cells; assay type: cell-based
[4] = target: T1, SN-F; assay type: cell-based
[5] = target: T2, SN-F, fusion glycoprotein of Sendai …; test: cell-based or functional assay
[6] = system: guinea pig erythrocytes; assay type: cell-based
[7] = target: PI3 F plus PI3 HN (viral glycoproteins of PI3 virus; HN:F) (parainfluenza type 3 (PI3) virus, UniProt P06828); test: cell-based or functional assay

Row | Molecule | inhibition of PI3 cell fusion at high peptide concentration [1] | syncytium formation / inhibition of cell fusion in PI3 infected HeLa-T4 cells (in words) ([1]; incubated with peptide, concentration not given) | inhibition of PI3 virus-induced cell fusion ([1]; peptide 200 μM or more, 24 h post infection) | inhibition of cell fusion by vaccinia-expressed PI3 F and HN (in words) [2] | Cell surface expression (%) [3] [%] | Relative fusion promoting activity b/a [4] | Fusion activity (%), β-galactosidase production in the fusion dependent reporter gene activation assay [5] | HAD activity as percentage of wild type SN-HN hemadsorption [6] | hemadsorption observed under the microscope [6] | fusion promoting activity, percentage of wild type SN-HN [4] [%] | 50% effective concentration (EC50) of inhibition of virus infection efficiency, plaque assay, Reed-Muench method [7] [µM] | viral titer in the culture supernatant post infection [7] [fold reduction]
1 | 3F1B24: 24 a.a. PI3F peptide corresponding to the heptad repeat B only (ELNKAKSDLEESKEWIRRSNQKLD) | could only partially inhibit cell fusion | dramatically decreased | partially inhibited | only partially inhibited cell fusion | – | – | – | – | – | – | – | –
2 | SN(54-140) chimeric HN protein (other) MEYWKHTNHGKDAGNELETSMATHGNKITNKITYILWTIILVLLSIVFIIVLIICIIISARQGYSMKEYSMTVEALNMSSREVKESLTSLIRQEVIARAVNIQSSVQTGIPVLLNKNSRDVIQMIDKSCSRQELTQHCESRITHDVGIKPLNPDDFWRCTSGLPSLMKTPKIRLMPGPGLLAMPTTVDGCVRTPSLVINDLIYAYTSNLITRGCQDIGKSYQVLQIGIITVNSDLVPDLNPRISHTFNINDNRKSCSLALLNTDVYQLCSTPKVDERSDYASSGIEDIVLDIVNHDGSISTTRFKNNNISFDQPYAALYPSVGPGIYYKGKIIFLGYGGLEHPINENAICNTTGCPGKTQRDCNQASHSPWFSDRRMVNSIIVVDKGLNSIPKLKVWTISMRQNYWGSEGRLLLLGNKIYIYTRSTSWHSKLQLGIIDITDYSDIRIKWTWHNVLSRPGNNECPWGHSCPDGCITGVYTDAYPLNPTGSIVSSVILDSQKSRVNPVITYSTSTERVNELAIRNKTLSAGYTTTSCITHYNKGYCFHIVEINHKSLDTFQPMLFKTEIPKSCS | – | – | – | – | 131.5 | 0.42 | 55.3 % of SN-HN wt with SN-F | comparable or higher HAD activity than that of SN-HN | high levels of hemadsorption | – | – | –
3 | SN(59-140) chimeric HN protein (other) MEYWKHTNHGKDAGNELETSMATHGNKITNKITYILWTIILVLLSIVFIIVLINSIKSSARQGYSMKEYSMTVEALNMSSREVKESLTSLIRQEVIARAVNIQSSVQTGIPVLLNKNSRDVIQMIDKSCSRQELTQHCESRITHDVGIKPLNPDDFWRCTSGLPSLMKTPKIRLMPGPGLLAMPTTVDGCVRTPSLVINDLIYAYTSNLITRGCQDIGKSYQVLQIGIITVNSDLVPDLNPRISHTFNINDNRKSCSLALLNTDVYQLCSTPKVDERSDYASSGIEDIVLDIVNHDGSISTTRFKNNNISFDQPYAALYPSVGPGIYYKGKIIFLGYGGLEHPINENAICNTTGCPGKTQRDCNQASHSPWFSDRRMVNSIIVVDKGLNSIPKLKVWTISMRQNYWGSEGRLLLLGNKIYIYTRSTSWHSKLQLGIIDITDYSDIRIKWTWHNVLSRPGNNECPWGHSCPDGCITGVYTDAYPLNPTGSIVSSVILDSQKSRVNPVITYSTSTERVNELAIRNKTLSAGYTTTSCITHYNKGYCFHIVEINHKSLDTFQPMLFKTEIPKSCS | – | – | – | – | 82.3 | 0.11 | 8.82 % of SN-HN wt with SN-F | comparable or higher HAD activity than that of SN-HN | high levels of hemadsorption | 8.8 | – | –
4 | Ac-ELNKAKSDLEESKEWIRRSNQKLDSIGNWHQSSTT-NH2 [peptide 3F1B35] | – | – | – | – | – | – | – | – | – | – | 81.6 | 10
5 | SN(59-140)d chimeric HN protein (other) MEYWKHTNHGKDAGNELETSMATHGNKITNKITYILWTIILVLLSIVFIIVLISARQGYSMKEYSMTVEALNMSSREVKESLTSLIRQEVIARAVNIQSSVQTGIPVLLNKNSRDVIQMIDKSCSRQELTQHCESRITHDVGIKPLNPDDFWRCTSGLPSLMKTPKIRLMPGPGLLAMPTTVDGCVRTPSLVINDLIYAYTSNLITRGCQDIGKSYQVLQIGIITVNSDLVPDLNPRISHTFNINDNRKSCSLALLNTDVYQLCSTPKVDERSDYASSGIEDIVLDIVNHDGSISTTRFKNNNISFDQPYAALYPSVGPGIYYKGKIIFLGYGGLEHPINENAICNTTGCPGKTQRDCNQASHSPWFSDRRMVNSIIVVDKGLNSIPKLKVWTISMRQNYWGSEGRLLLLGNKIYIYTRSTSWHSKLQLGIIDITDYSDIRIKWTWHNVLSRPGNNECPWGHSCPDGCITGVYTDAYPLNPTGSIVSSVILDSQKSRVNPVITYSTSTERVNELAIRNKTLSAGYTTTSCITHYNKGYCFHIVEINHKSLDTFQPMLFKTEIPKSCS | – | – | – | – | 61.6 | 0.51 | 31.3 % of SN-HN wt with SN-F | comparable or higher HAD activity than that of SN-HN | high levels of hemadsorption | – | – | –
6 | SN(80-140)d chimeric HN protein (other) MEYWKHTNHGKDAGNELETSMATHGNKITNKITYILWTIILVLLSIVFIIVLINSIKSEKAHESLLQDVNNEFMSREVKESLTSLIRQEVIARAVNIQSSVQTGIPVLLNKNSRDVIQMIDKSCSRQELTQHCESRITHDVGIKPLNPDDFWRCTSGLPSLMKTPKIRLMPGPGLLAMPTTVDGCVRTPSLVINDLIYAYTSNLITRGCQDIGKSYQVLQIGIITVNSDLVPDLNPRISHTFNINDNRKSCSLALLNTDVYQLCSTPKVDERSDYASSGIEDIVLDIVNHDGSISTTRFKNNNISFDQPYAALYPSVGPGIYYKGKIIFLGYGGLEHPINENAICNTTGCPGKTQRDCNQASHSPWFSDRRMVNSIIVVDKGLNSIPKLKVWTISMRQNYWGSEGRLLLLGNKIYIYTRSTSWHSKLQLGIIDITDYSDIRIKWTWHNVLSRPGNNECPWGHSCPDGCITGVYTDAYPLNPTGSIVSSVILDSQKSRVNPVITYSTSTERVNELAIRNKTLSAGYTTTSCITHYNKGYCFHIVEINHKSLDTFQPMLFKTEIPKSCS | – | – | – | – | 72.0 | 0.09 | 6.72 % of SN-HN wt with SN-F | 30.5% | lower activities | 6.7 | – | –
